# B1: Hsp90 co-chaperone Cdc37 (Schizosaccharomyces pombe (strain ATCC 38366 / 972)), O94740 (parent)
# chain: MAIDYSKWDKLELSDDSDIEVHPNVDKKSFIRWRQRDIHEKRAVRKQKMEDIKGAMAMNRRLLSRISEMETVLEKESPSDPYVLLGSFLEAKKSEDMDSAIPGGMSYHHMLMSLLKVIKDAEDTTEEKSMDDSDKCLRRLKSHKERLLKLLEDAQKEYDTLEAESKNYITSEDLHLGFDSTYVQKKEPEKPKKTKTKKETIQVIESLNNPTPPTDFPGAKEQASTGNAPKNPVNENESEDEEGLSLSEDGKKFANIDFGDYSSSEEFLKEHLNILADEEESDAILLEAFNAELEGKPSLAKQYVHQALLISYCRQLGPNGLSIFFQKIKDPNHQSQRLFLEDVHNTYVRIHERSAAISKEQAESGEGVEQIQLCAVDPNTKLSITIPEAGSTDPETQKARAAFESFPPNLQKALMTNDLDKINVVLGKMAVENAEEVVEKLSSTGMLSIEEGIIDTTKGETIPQLS
# Variants of: B1
# Conditions: with cdk1_schpo cdc2, P04551
# cdk1_schpo cdc2, P04551, sequence (P04551 whole entry): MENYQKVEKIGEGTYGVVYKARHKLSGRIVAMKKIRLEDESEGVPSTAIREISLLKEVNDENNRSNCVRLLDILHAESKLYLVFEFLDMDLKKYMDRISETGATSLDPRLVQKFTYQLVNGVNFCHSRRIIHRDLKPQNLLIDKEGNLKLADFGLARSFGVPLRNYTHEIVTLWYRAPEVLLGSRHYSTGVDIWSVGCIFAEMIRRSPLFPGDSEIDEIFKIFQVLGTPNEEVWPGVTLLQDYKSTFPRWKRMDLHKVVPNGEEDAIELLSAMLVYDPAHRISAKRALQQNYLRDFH
row,effect of a mutation on the interaction,Variant
1,decreasing interaction,L285P
2,decreasing interaction,E287D

# — IntAct's records for PubMed 16390871
